Source: patent US20150152185A1

Tests used:
[1] = target: CD123 (human IL-3Ralpha), form in the assay not stated (human) (UniProt P26951); assay: method not stated
[2] = target: CD123 (IL-3 receptor alpha chain, IL-3Ralpha) on cells (human) (UniProt P26951); assay: cell-based or functional assay

With “CSL360 (chimeric antibody: 7G3 variable regions on a human IgG1 constant region)” the Kd [1] was 1.06 nM, the % CD107a positive NK cells, PBMC with AML sample RMH003 and CSL360 [2] was 39% and the % lysis, 51Cr release ADCC, CTLEN cells, E:T 10:1 [2] was 10%. The % lysis, 51Cr release ADCC, CTLEN cells, E:T 100:1 [2] was 51%, the % lysis, 51Cr release ADCC, SL (AML) cells, E:T 10:1 [2] was 2.4% and the % lysis, 51Cr release ADCC, SL (AML) cells, E:T 100:1 [2] was 15%. It also gave a % lysis, calcein release ADCC, RBH013 (AML), E:T 10:1 [2] of 0%, a % lysis, calcein release ADCC, RBH013 (AML), E:T 100:1 [2] of 0% and a % lysis, calcein release ADCC, RMH003 (AML), E:T 10:1 [2] of 39.2%. The % lysis, calcein release ADCC, RMH003 (AML), E:T 100:1 [2] was 82.6%, the % lysis, calcein release ADCC, RMH008 (AML), E:T 10:1 [2] was 59.5% and the % lysis, calcein release ADCC, RMH008 (AML), E:T 100:1 [2] was 100%. It also gave a % lysis, calcein release ADCC, RMH009 (B-ALL), E:T 10:1 [2] of 0%, a % lysis, calcein release ADCC, RMH009 (B-ALL), E:T 100:1 [2] of 0% and a % lysis, calcein release ADCC, RMH009* (B-ALL, repeat with other PBMC), E:T 10:1 [2] of 0%. It also gave a % lysis, calcein release ADCC, RMH009* (B-ALL, repeat with other PBMC), E:T 100:1 [2] of 0%, a % lysis, calcein release ADCC, RMH010 (AML), E:T 10:1 [2] of 4% and a % lysis, calcein release ADCC, RMH010 (AML), E:T 100:1 [2] of 0%. It also gave a % of NK cells expressing CD107a, CSL360 at E:T 1:1, CTLEN-001 [2] of 6.7%, a % of NK cells expressing CD107a, CSL360 at E:T 1:1, CTLEN-008 [2] of 24% and a % of NK cells expressing CD107a, CSL360 at E:T 1:1, CTLEN-010 [2] of 5.7%. For the same substance, the % of NK cells expressing CD107a, CSL360 at E:T 1:1, CTLEN-011-PBMC-1 [2] was 8.1%, the % of NK cells expressing CD107a, CSL360 at E:T 1:1, CTLEN-011-PBMC-2 [2] was 10.5% and the % of NK cells expressing CD107a, CSL360 at E:T 1:1, EL4hi-002 [2] was 2.9%. For the same substance, the % of NK cells expressing CD107a, CSL360 at E:T 1:1, EL4hi-003 [2] was 15%, the % of NK cells expressing CD107a, CSL360 at E:T 1:1, EL4hi-004 [2] was 16% and the % of NK cells expressing CD107a, CSL360 at E:T 1:1, EL4hi-005 [2] was 21%. The % of NK cells expressing CD107a, CSL360 at E:T 1:1, EL4hi-010 [2] was 34%, the % of NK cells expressing CD107a, CSL360 at E:T 1:1, EL4hi-011-PBMC-1 [2] was 15.5% and the % of NK cells expressing CD107a, CSL360 at E:T 1:1, EL4hi-011-PBMC-2 [2] was 23.5%. For the same substance, the % of NK cells expressing CD107a, CSL360 at E:T 1:1, EL4hi/lo-001 [2] was 2.8%, the % of NK cells expressing CD107a, CSL360 at E:T 1:1, RBH009^a (AML) [2] was 8.5% and the % of NK cells expressing CD107a, CSL360 at E:T 1:1, RBH009^b (AML) [2] was 8%. The % of NK cells expressing CD107a, CSL360 at E:T 1:1, RBH013^a (AML) [2] was 10%, the % of NK cells expressing CD107a, CSL360 at E:T 1:1, RBH013^b (AML) [2] was 22% and the % of NK cells expressing CD107a, CSL360 at E:T 1:1, RMH003^a (AML) [2] was 30%. For the same substance, the % of NK cells expressing CD107a, CSL360 at E:T 1:1, RMH003^b (AML) [2] was 33%, the % of NK cells expressing CD107a, CSL360 at E:T 1:1, RMH003^c (AML) [2] was 38% and the % of NK cells expressing CD107a, CSL360 at E:T 1:1, RMH007 (B-ALL) [2] was 16.4%. For the same substance, the % of NK cells expressing CD107a, CSL360 at E:T 1:1, RMH008^a (AML) [2] was 9%, the % of NK cells expressing CD107a, CSL360 at E:T 1:1, RMH008^b (AML) [2] was 16% and the % of NK cells expressing CD107a, CSL360 at E:T 1:1, RMH008^c (AML) [2] was 8.7%. The % of NK cells expressing CD107a, CSL360 at E:T 1:1, RMH009^a (B-ALL) [2] was 3%, the % of NK cells expressing CD107a, CSL360 at E:T 1:1, RMH009^b (B-ALL) [2] was 1.7% and the % of NK cells expressing CD107a, CSL360 at E:T 1:1, RMH009^c (B-ALL) [2] was 7.4%. The % of NK cells expressing CD107a, CSL360 at E:T 1:1, RMH010^a (AML) [2] was 14%, the % of NK cells expressing CD107a, CSL360 at E:T 1:1, RMH010^b (AML) [2] was 25.5% and the % of NK cells expressing CD107a, CSL360 at E:T 1:1, RMH011 (AML) [2] was 6.6%. It also gave a % of NK cells expressing CD107a, CSL360 at E:T 1:1, TF-1 (GM-CSF) [2] of 0.7%, a % of NK cells expressing CD107a, CSL360 at E:T 1:1, TF-1 (IL-3) [2] of 1.45% and an IC50, IL-3-dependent TF-1 cell proliferation [2] of 5 nM.
